Experiments:
(Fucα1,6)GlcNAc-mAb2 [1] = experiment: One-pot method with various sugar chain donors, Endo-Rp N172H and Endo-Si D241M/Q311L; assay type: biochemical; conditions: donor 50 eq., Endo-Rp N172H 8 μg, Endo-Si D241M/Q311L 10 μg, 28° C., pH 7.5
Protocol: Transglycosylation activity was evaluated as follows. […] When SGP was used as a donor, the transglycosylation rate was calculated in accordance with the formula for computation described in Example 5.

(Fucα1,6)GlcNAc-mAb2 [2] = experiment: One-pot method: Endo-Rp mutant enzymes (enzyme A) combined with Endo-Si D241Q, SGP donor; assay type: biochemical; conditions: Endo-Rp mutant enzyme 8 μg with Endo-Si D241Q 5 μg, SGP (50 eq.), 28° C., pH 7.5
Protocol: Using Endo-Rp, which is known to transfer a sugar chain from a sugar chain donor, SGP, to a GlcNAc derivative, as a representative of enzyme A, the property of enzyme A that can be used in combination with Endo-Si was investigated.
The transglycosylation activity on an antibody by the one-pot method was evaluated as follows. A 50 mM (sodium) phosphorate buffer (pH 7.5) solution (17 μL) containing (Fucα1,6)GlcNAc-mAb2 (0.5 mg), SGP (0.485 mg (50 eq.)), Endo-M N175Q (manufactured by Tokyo Kasei Kogyo Co., Ltd.) (2.5 mU) or each of various Endo-Rp mutant enzymes (8 μg) and Endo-Si D241Q (5 μg) was prepared and incubated at 28° C. A sample was taken from each of the reaction solutions at 2, 4, 6, 24, and 48 hours after initiation of the reaction and analyzed for protein by a fully automated electrophoresis system as mentioned above. In the chromatogram obtained, the transglycosylation rate was calculated in accordance with the formula for computation described in Example 5.

Row | Molecule | Transglycosylation rate (%) ((Fucα1,6)GlcNAc-mAb2 [1]; 2 h) | Transglycosylation rate (%) ((Fucα1,6)GlcNAc-mAb2 [1]; 4 h) | Transglycosylation rate (%) ((Fucα1,6)GlcNAc-mAb2 [1]; 6 h) | Transglycosylation rate (%) ((Fucα1,6)GlcNAc-mAb2 [1]; 24 h) | Transglycosylation rate (%) ((Fucα1,6)GlcNAc-mAb2 [1]; 48 h) | Change in transglycosylation rate (%) with time ((Fucα1,6)GlcNAc-mAb2 [2]; 2 h) [%] | Change in transglycosylation rate (%) with time ((Fucα1,6)GlcNAc-mAb2 [2]; 4 h) [%] | Change in transglycosylation rate (%) with time ((Fucα1,6)GlcNAc-mAb2 [2]; 6 h) [%] | Change in transglycosylation rate (%) with time ((Fucα1,6)GlcNAc-mAb2 [2]; 24 h) [%] | Change in transglycosylation rate (%) with time ((Fucα1,6)GlcNAc-mAb2 [2]; 48 h) [%]
1 | sialyl glycopeptide [SGP] | 3.8 | 5.0 | 11.2 | 53.5 | 89.7 | – | – | – | – | –
2 | Endo-Rp W278F/N172D/F307Y (protein) MPSLQLQPDDKLAPVSFALKSMNELRDWTPDEKIKFNVSSVALQPRVKNALKPQLLLTHDMAGGYKEDKNIQGNNYKDIYNIQYWHLADTFVYFSHERVSIPPVNWTNACHRNGVKCLGTFLVEGNNQMHEMEALLHGPPLLNNTDDPMRLWSPYYADQLVAIAKHYGFDGWLFDIECEFFPFPTNPKFKAEELAKFLHYFKEKLHNEIPGSQLIWYDSMTNEGEIHWQNQLTWKNELFFKNTDGIFLNYWWKKEYPEMARRVAEGIGRSGLEVYFGTDVFGRHTYGGGGFKSYKGVKTAYSAMTSSALYGMAWTYEHFEKSEFEKMDRLFWCGGKYSDYPPPPPKNPDDEKEVESDDSEDELMYGHKKGIADTVESIPVPGTDWFVTNFDRGFGNRFYYRGKRLLSQPWSHLSHQAILPNKSYRNPEIYPTDQNIKITSSLDCDHGAFLGGTSLIIKGQRFNHRESHDVETEISIPLYKLSLDASKGCSLRYIYRTLLMKDVKLTVACHFSLKTNDSVNFFKVWQPDENFSFEYDDGMRATVTTENSTESRCFLLRTTEEDTGENDWITKTINVPAVPEGSQLYITRLEVSVVLDTAGLVGLVNQVIACLGYISIIPTINSGIKTDSSRIIQDLFWKDQKYTKIGKESLDDIAQEEVHRYYGTLNWENTANVVNAWEEIDYYNVFYKESDDSATRIFLGTAFCNQFRVSGLDIILSKLPKIVIEAVNKEGYISSSGSIDLSLN | – | – | – | – | – | 12.0 | 19.0 | 24.9 | 76.5 | 93.1
3 | Endo-Rp W278F/N172D/F307H (protein) MPSLQLQPDDKLAPVSFALKSMNELRDWTPDEKIKFNVSSVALQPRVKNALKPQLLLTHDMAGGYKEDKNIQGNNYKDIYNIQYWHLADTFVYFSHERVSIPPVNWTNACHRNGVKCLGTFLVEGNNQMHEMEALLHGPPLLNNTDDPMRLWSPYYADQLVAIAKHYGFDGWLFDIECEFFPFPTNPKFKAEELAKFLHYFKEKLHNEIPGSQLIWYDSMTNEGEIHWQNQLTWKNELFFKNTDGIFLNYWWKKEYPEMARRVAEGIGRSGLEVYFGTDVFGRHTYGGGGFKSYKGVKTAYSAMTSSALHGMAWTYEHFEKSEFEKMDRLFWCGGKYSDYPPPPPKNPDDEKEVESDDSEDELMYGHKKGIADTVESIPVPGTDWFVTNFDRGFGNRFYYRGKRLLSQPWSHLSHQAILPNKSYRNPEIYPTDQNIKITSSLDCDHGAFLGGTSLIIKGQRFNHRESHDVETEISIPLYKLSLDASKGCSLRYIYRTLLMKDVKLTVACHFSLKTNDSVNFFKVWQPDENFSFEYDDGMRATVTTENSTESRCFLLRTTEEDTGENDWITKTINVPAVPEGSQLYITRLEVSVVLDTAGLVGLVNQVIACLGYISIIPTINSGIKTDSSRIIQDLFWKDQKYTKIGKESLDDIAQEEVHRYYGTLNWENTANVVNAWEEIDYYNVFYKESDDSATRIFLGTAFCNQFRVSGLDIILSKLPKIVIEAVNKEGYISSSGSIDLSLN | – | – | – | – | – | 8.8 | 13.4 | 17.7 | 66.1 | 91.1
4 | Endo-Rp W278F/N172D/A310D (protein) MPSLQLQPDDKLAPVSFALKSMNELRDWTPDEKIKFNVSSVALQPRVKNALKPQLLLTHDMAGGYKEDKNIQGNNYKDIYNIQYWHLADTFVYFSHERVSIPPVNWTNACHRNGVKCLGTFLVEGNNQMHEMEALLHGPPLLNNTDDPMRLWSPYYADQLVAIAKHYGFDGWLFDIECEFFPFPTNPKFKAEELAKFLHYFKEKLHNEIPGSQLIWYDSMTNEGEIHWQNQLTWKNELFFKNTDGIFLNYWWKKEYPEMARRVAEGIGRSGLEVYFGTDVFGRHTYGGGGFKSYKGVKTAYSAMTSSALFGMDWTYEHFEKSEFEKMDRLFWCGGKYSDYPPPPPKNPDDEKEVESDDSEDELMYGHKKGIADTVESIPVPGTDWFVTNFDRGFGNRFYYRGKRLLSQPWSHLSHQAILPNKSYRNPEIYPTDQNIKITSSLDCDHGAFLGGTSLIIKGQRFNHRESHDVETEISIPLYKLSLDASKGCSLRYIYRTLLMKDVKLTVACHFSLKTNDSVNFFKVWQPDENFSFEYDDGMRATVTTENSTESRCFLLRTTEEDTGENDWITKTINVPAVPEGSQLYITRLEVSVVLDTAGLVGLVNQVIACLGYISIIPTINSGIKTDSSRIIQDLFWKDQKYTKIGKESLDDIAQEEVHRYYGTLNWENTANVVNAWEEIDYYNVFYKESDDSATRIFLGTAFCNQFRVSGLDIILSKLPKIVIEAVNKEGYISSSGSIDLSLN | – | – | – | – | – | 0.0 | 0.0 | 0.0 | 8.5 | 17.0
5 | Endo-Rp Y214F/F307Y/L306I (protein) MPSLQLQPDDKLAPVSFALKSMNELRDWTPDEKIKFNVSSVALQPRVKNALKPQLLLTHDMAGGYKEDKNIQGNNYKDIYNIQYWHLADTFVYFSHERVSIPPVNWTNACHRNGVKCLGTFLVEGNNQMHEMEALLHGPPLLNNTDDPMRLWSPYYADQLVAIAKHYGFDGWLFNIECEFFPFPTNPKFKAEELAKFLHYFKEKLHNEIPGSQLIWFDSMTNEGEIHWQNQLTWKNELFFKNTDGIFLNYWWKKEYPEMARRVAEGIGRSGLEVYFGTDVWGRHTYGGGGFKSYKGVKTAYSAMTSSAIYGMAWTYEHFEKSEFEKMDRLFWCGGKYSDYPPPPPKNPDDEKEVESDDSEDELMYGHKKGIADTVESIPVPGTDWFVTNFDRGFGNRFYYRGKRLLSQPWSHLSHQAILPNKSYRNPEIYPTDQNIKITSSLDCDHGAFLGGTSLIIKGQRFNHRESHDVETEISIPLYKLSLDASKGCSLRYIYRTLLMKDVKLTVACHFSLKTNDSVNFFKVWQPDENFSFEYDDGMRATVTTENSTESRCFLLRTTEEDTGENDWITKTINVPAVPEGSQLYITRLEVSVVLDTAGLVGLVNQVIACLGYISIIPTINSGIKTDSSRIIQDLFWKDQKYTKIGKESLDDIAQEEVHRYYGTLNWENTANVVNAWEEIDYYNVFYKESDDSATRIFLGTAFCNQFRVSGLDIILSKLPKIVIEAVNKEGYISSSGSIDLSLN | – | – | – | – | – | 34.5 | 53.0 | 63.4 | 87.4 | 88.8

Reference: US20240336907A1, “NOVEL ENDO-ß-N-ACETYLGLUCOSAMINIDASE” (priority 2020, published 2024)
